In US9708375 (Amgen, dated 2017):
Where a chain is given by its changes, count along the chain named. Names may count otherwise.

B1: P7077 (bispecific antibody, human IgG2, lambda)
heavy: QVQLVESGGGVVQPGRSLRLSCAASGFTFSRYDMHWVRQAPGKGLEWVAIIFYDGSNKYYADPVKGRFTISRDNSKNTLYLQMNSLRAEDTAVYYCATLAAAFDYWGQGTLVTVSSASTKGPSVFPLAPCSRSTSESTAALGCLVKDYFPEPVTVSWNSGALTSGVHTFPAVLQSSGLYSLSSVVTVPSSNFGTQTYTCNVDHKPSNTKVDKTVERKCCVECPPCPAPPVAGPSVFLFPPKPKDTLMISRTPEVTCVVVDVSHEDPEVQFNWYVDGVEVHNAKTKPREEQFNSTFRVVSVLTVVHQDWLNGKEYKCKVSNKGLPAPIEKTISKTKGQPREPQVYTLPPSREEMTKNQVSLTCLVKGFYPSDIAVEWESNGQPENNYKTTPPMLDSDGSFFLYSKLTVDKSRWQQGNVFSCSVMHEALHNHYTQKSLSLSPGKSSGGSCGRDHFRCRSYDKCVPAHWLCDGVLDCLDSSDETYCSAPASEPPGSLCPAYTEFLCKDSDRCFPSEWRCDGEMDCVDGSDELHCAYHTSLQ
light: YVLTQPPSVSVAPGQTARITCGGNNIGSKSVHWYQQKPGQAPVLVVYDDSDRPSEIPERFSGSNSGNTATLTISRVEAGDEADYYCQVWDSSSDHVVFGGGTRLTVLGQPKAAPSVTLFPPSSEELQANKATLVCLISDFYPGAVTVAWKADSSPVKAGVETTTPSKQSNNKYAASSYLSLTPEQWKSHRSYSCQVTHEGSTVEKTVAPTECS
notes: also called P6888; Ab-Avimer-4 (P7077A)
B2: P7656 (bispecific antibody, human IgG2, lambda)
heavy: QVQLVESGGGVVQPGRSLRLSCAASGFTFSRYDMHWVRQAPGKGLEWVAIIFYDGSNKYYADPVKGRFTISRDNSKNTLYLQMNSLRAEDTAVYYCATLAAAFDYWGQGTLVTVSSASTKGPSVFPLAPCSRSTSESTAALGCLVKDYFPEPVTVSWNSGALTSGVHTFPAVLQSSGLYSLSSVVTVPSSNFGTQTYTCNVDHKPSNTKVDKTVERKCCVECPPCPAPPVAGPSVFLFPPKPKDTLMISRTPEVTCVVVDVSHEDPEVQFNWYVDGVEVHNAKTKPREEQFNSTFRVVSVLTVVHQDWLNGKEYKCKVSNKGLPAPIEKTISKTKGQPREPQVYTLPPSREEMTKNQVSLTCLVKGFYPSDIAVEWESNGQPENNYKTTPPMLDSDGSFFLYSKLTVDKSRWQQGNVFSCSVMHEALHNHYTQKSLSLSPGKSSGGSCAPNQFRCNSYDKCVPAHWVCDGVLDCLDSSDETNCGGGGSGGGGSCPAYTEFLCKDSDRCFPSEWRCDGEMDCVDGSDELHC
light: B1 light
notes: also called C140166
B3: P7069 (bispecific antibody, human IgG2, lambda)
heavy: QVQLVESGGGVVQPGRSLRLSCAASGFTFSRYDMHWVRQAPGKGLEWVAIIFYDGSNKYYADPVKGRFTISRDNSKNTLYLQMNSLRAEDTAVYYCATLAAAFDYWGQGTLVTVSSASTKGPSVFPLAPCSRSTSESTAALGCLVKDYFPEPVTVSWNSGALTSGVHTFPAVLQSSGLYSLSSVVTVPSSNFGTQTYTCNVDHKPSNTKVDKTVERKCCVECPPCPAPPVAGPSVFLFPPKPKDTLMISRTPEVTCVVVDVSHEDPEVQFNWYVDGVEVHNAKTKPREEQFNSTFRVVSVLTVVHQDWLNGKEYKCKVSNKGLPAPIEKTISKTKGQPREPQVYTLPPSREEMTKNQVSLTCLVKGFYPSDIAVEWESNGQPENNYKTTPPMLDSDGSFFLYSKLTVDKSRWQQGNVFSCSVMHEALHNHYTQKSLSLSPGKSSGGSCPAYTEFLCKDSDRCFPSEWRCDGEMDCVDGSDELHCAYHTCAPNQFRCNSYDKCVPAHWVCDGVLDCLDSSDETNCSAPASEPPGSLSLQ
light: B1 light
notes: also called P6991; Ab-Avimer-2 (P7069A)
B4: P7649 (bispecific antibody, human IgG2, lambda)
heavy: QVQLVESGGGVVQPGRSLRLSCAASGFTFSRYDMHWVRQAPGKGLEWVAIIFYDGSNKYYADPVKGRFTISRDNSKNTLYLQMNSLRAEDTAVYYCATLAAAFDYWGQGTLVTVSSASTKGPSVFPLAPCSRSTSESTAALGCLVKDYFPEPVTVSWNSGALTSGVHTFPAVLQSSGLYSLSSVVTVPSSNFGTQTYTCNVDHKPSNTKVDKTVERKCCVECPPCPAPPVAGPSVFLFPPKPKDTLMISRTPEVTCVVVDVSHEDPEVQFNWYVDGVEVHNAKTKPREEQFNSTFRVVSVLTVVHQDWLNGKEYKCKVSNKGLPAPIEKTISKTKGQPREPQVYTLPPSREEMTKNQVSLTCLVKGFYPSDIAVEWESNGQPENNYKTTPPMLDSDGSFFLYSKLTVDKSRWQQGNVFSCSVMHEALHNHYTQKSLSLSPGSSGGSCAPNQFRCNSYDKCVPAHWVCDGVLDCLDSSDETNCSAPASEPPGSLCPAYTEFLCKDSDRCFPSEWRCDGEMDCVDGSDELHCAYHTSLQ
light: B1 light
notes: also called C140159
B5: P7078 (bispecific antibody, human IgG2, lambda)
heavy: SGGSWCPPNHFMCNSYDKCVPAHWFCDGVLDCLDSSDETNCSAPASEPPGSLCPAYTEFLCKDSDRCFPSEWRCDGEMDCVDGSDELHCAYHTSQVQLVESGGGVVQPGRSLRLSCAASGFTFSRYDMHWVRQAPGKGLEWVAIIFYDGSNKYYADPVKGRFTISRDNSKNTLYLQMNSLRAEDTAVYYCATLAAAFDYWGQGTLVTVSSASTKGPSVFPLAPCSRSTSESTAALGCLVKDYFPEPVTVSWNSGALTSGVHTFPAVLQSSGLYSLSSVVTVPSSNFGTQTYTCNVDHKPSNTKVDKTVERKCCVECPPCPAPPVAGPSVFLFPPKPKDTLMISRTPEVTCVVVDVSHEDPEVQFNWYVDGVEVHNAKTKPREEQFNSTFRVVSVLTVVHQDWLNGKEYKCKVSNKGLPAPIEKTISKTKGQPREPQVYTLPPSREEMTKNQVSLTCLVKGFYPSDIAVEWESNGQPENNYKTTPPMLDSDGSFFLYSKLTVDKSRWQQGNVFSCSVMHEALHNHYTQKSLSLSPGK
light: B1 light
notes: also called P6886; Ab-Avimer-5 (P7078A)
B6: P7070 (bispecific antibody, human IgG2, lambda)
heavy: QVQLVESGGGVVQPGRSLRLSCAASGFTFSRYDMHWVRQAPGKGLEWVAIIFYDGSNKYYADPVKGRFTISRDNSKNTLYLQMNSLRAEDTAVYYCATLAAAFDYWGQGTLVTVSSASTKGPSVFPLAPCSRSTSESTAALGCLVKDYFPEPVTVSWNSGALTSGVHTFPAVLQSSGLYSLSSVVTVPSSNFGTQTYTCNVDHKPSNTKVDKTVERKCCVECPPCPAPPVAGPSVFLFPPKPKDTLMISRTPEVTCVVVDVSHEDPEVQFNWYVDGVEVHNAKTKPREEQFNSTFRVVSVLTVVHQDWLNGKEYKCKVSNKGLPAPIEKTISKTKGQPREPQVYTLPPSREEMTKNQVSLTCLVKGFYPSDIAVEWESNGQPENNYKTTPPMLDSDGSFFLYSKLTVDKSRWQQGNVFSCSVMHEALHNHYTQKSLSLSPGKSSGGSWCPPNHFMCNSYDKCVPAHWFCDGVLDCLDSSDETNCSAPASEPPGSLCPAYTEFLCKDSDRCFPSEWRCDGEMDCVDGSDELHCAYHTSLQ
light: B1 light
notes: also called P6992; Ab-Avimer-3 (P7070A)
B7: P7650 (bispecific antibody, human IgG2, lambda)
heavy: B4 heavy with A448G, P449R, N450D, Q451H, N455R, V466L, N481Y
light: B1 light
notes: also called C140160
B8: P7654 (bispecific antibody, human IgG2, lambda)
heavy: QVQLVESGGGVVQPGRSLRLSCAASGFTFSRYDMHWVRQAPGKGLEWVAIIFYDGSNKYYADPVKGRFTISRDNSKNTLYLQMNSLRAEDTAVYYCATLAAAFDYWGQGTLVTVSSASTKGPSVFPLAPCSRSTSESTAALGCLVKDYFPEPVTVSWNSGALTSGVHTFPAVLQSSGLYSLSSVVTVPSSNFGTQTYTCNVDHKPSNTKVDKTVERKCCVECPPCPAPPVAGPSVFLFPPKPKDTLMISRTPEVTCVVVDVSHEDPEVQFNWYVDGVEVHNAKTKPREEQFNSTFRVVSVLTVVHQDWLNGKEYKCKVSNKGLPAPIEKTISKTKGQPREPQVYTLPPSREEMTKNQVSLTCLVKGFYPSDIAVEWESNGQPENNYKTTPPMLDSDGSFFLYSKLTVDKSRWQQGNVFSCSVMHEALHNHYTQKSLSLSPGKSSGGSCAPNQFACNSYDKCVPAHWVCDGVLDCLDSSDETNCSAPASEPPGSLCPAYTEFLCADSDACFPSEWACDGEMDCVDGSDELHCAYHTSLQ
light: B1 light
notes: also called C140164
B9: P7651 (bispecific antibody, human IgG2, lambda)
heavy: B8 heavy with A454R, A508R, A515R
light: B1 light
notes: also called C140161
B10: C4229 (designed binder)
chain: CPASYFQCRNNNHCYPMEWRCDGFQDCEDGSDEKGCPYRT
B11: C4234 (designed binder)
chain: CPSNEFMCADKMCFPLIFLCDGENDCEDGSDEVDCPSRT

What follows are binders tested against T1, biotin labeled human recombinant Sclerostin (human, UniProt Q9BQB4 24-213) (assay: AlphaScreen Sclerostin/LRP-6 inhibition).
T1 construct: also called human Sclerostin; huSOST
T1 sequence (looked up): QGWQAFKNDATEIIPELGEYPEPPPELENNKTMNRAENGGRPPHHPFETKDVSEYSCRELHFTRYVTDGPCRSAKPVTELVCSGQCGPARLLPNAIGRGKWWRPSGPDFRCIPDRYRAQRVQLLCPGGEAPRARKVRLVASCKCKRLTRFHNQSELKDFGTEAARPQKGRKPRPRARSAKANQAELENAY
B1: binds. B2: binds. B3: binds. B4: binds. B5: binds. B6: binds. B7: binds. B8: binds. B9: binds.

What follows are binders tested against T2, human recombinant Dkk-1 (human, UniProt O94907 32-266) (assay: AlphaScreen Dkk-1/LRP-6 inhibition).
T2 construct: also called human Dkk-1; human Dkk1
T2 sequence (looked up): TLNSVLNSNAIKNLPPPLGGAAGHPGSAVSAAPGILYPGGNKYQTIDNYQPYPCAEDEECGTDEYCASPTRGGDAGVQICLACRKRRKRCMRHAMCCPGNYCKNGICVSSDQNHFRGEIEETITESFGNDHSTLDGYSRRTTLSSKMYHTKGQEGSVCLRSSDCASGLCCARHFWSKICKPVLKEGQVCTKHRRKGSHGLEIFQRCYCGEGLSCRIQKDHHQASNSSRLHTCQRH
B10: binds. B11: binds.
